The target in assay [1] is type A insulin receptor (UniProt P06213). As to the kind of experiment: cell-based or functional assay.
For a further assay, the target named is type B insulin receptor (UniProt P06213). As to the kind of experiment: cell-based or functional assay.
For assay [2], the target named is type A insulin receptor (UniProt P06213). The assay can be described thus: competitive binding SPA, [125I]insulin.
The target is the same in assay [3]. As to the kind of experiment: binding assay.

Turning to “#31: IGF-2 analog B^2-C^2[K8]-A^2-D^2[R4] (from UniProt P01344 25-91) (ligand)”, the potency with type A insulin receptor [1] and with type B insulin receptor was 2 fold each time.

For “#48: Cys^B1-Cys^B1 #2* dimer, B^1[C1H5Y16L17O22R29]29:A^1[O9,14,15N18,21] (ligand)”, the % receptor activity, phosphorylation assay with type A insulin receptor [1] amounted to 102%. Further, the % receptor activity (binding assay) in the assay with type A insulin receptor [2] was 147%.

For “Cys-Cys^B1 peptide (analog #2* with Cys^B1 disulfide-bonded to free cysteine) (ligand)”, the % activity, phosphorylation assay in the assay with type A insulin receptor [1] was determined as 23.1%. In addition, the % activity (binding assay) with type A insulin receptor [2] was found to be 55.4%.

For “Insulin analog B^1[H5Y16L17O22R29]29:A^1[O9,14,15N18,21] (ligand)”, the % activity (binding assay) with type A insulin receptor [3] is 55%.

Values taken from patent US20150274802A1.
